± gives the standard error.
Test: background-corrected fluorescence of 3'-dye-labeled ssDNA relative to brightest sequence (3'-GCGCG) (fraction); higher = brighter dye fluorescence (less quenching)
Settings: dye: Cy5 (3' terminal)
Outline: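 Single-stranded DNA was built on glass slides by light-directed phosphoramidite synthesis, ending in a 3' Cy3 or Cy5 dye beside each of 1024 permuted pentamers. Arrays were washed in acetonitrile for 2 h at r.t., then scanned at 532 or 635 nm before and after overnight ethylenediamine/ethanol deprotection. Each value averages 10 features per array and at least 3 syntheses. Fluorescence, corrected by subtracting unlabeled-oligo background, is scaled to the brightest sequence.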

Point of comparison: “TTTTTTGCGCATCAGCATGCTTTTTTTTTTTTTTTATGTA”, background-corrected fluorescence 0.47 ± 0.039. Against it:
- TTTTTTGATGCTCATGCTGATTTTTTTTTTTTTTTCAGAC — lower, 0.372 ± 0.017
- TTTTTTGATGCTCATGCTGCTTTTTTTTTTTTTTTCAGAA [AAGAC] — within error, 0.471 ± 0.027
- TTTTTTGATGCTGAGCAGCATTTTTTTTTTTTTTTCACTT — lower, 0.351 ± 0.022
- TTTTTTGATGCTGAGCATCATTTTTTTTTTTTTTTCACTG [GTCAC] — within error, 0.398 ± 0.035
- TTTTTTGATGCTGAGCATGATTTTTTTTTTTTTTTCACTC [CTCAC] — lower, 0.296 ± 0.022
- TTTTTTGATGCTGAGCATGCTTTTTTTTTTTTTTTCACTA [ATCAC] — lower, 0.352 ± 0.025
- TTTTTTGATGCTGATCAGCATTTTTTTTTTTTTTTCACGT [TGCAC] — within error, 0.473 ± 0.03
- TTTTTTGATGCTGATCATCATTTTTTTTTTTTTTTCACGG [GGCAC] — within error, 0.525 ± 0.03
- TTTTTTGATGCTGATCATGATTTTTTTTTTTTTTTCACGC [CGCAC] — within error, 0.438 ± 0.036
- TTTTTTGATGCTGATCATGCTTTTTTTTTTTTTTTCACGA [AGCAC] — within error, 0.471 ± 0.023
- TTTTTTGATGCTGATGAGCATTTTTTTTTTTTTTTCACCT [TCCAC] — lower, 0.326 ± 0.03
- TTTTTTGATGCTGATGATCATTTTTTTTTTTTTTTCACCG [GCCAC] — within error, 0.423 ± 0.058
- TTTTTTGATGCTGATGATGATTTTTTTTTTTTTTTCACCC [CCCAC] — lower, 0.271 ± 0.019
- TTTTTTGATGCTGATGATGCTTTTTTTTTTTTTTTCACCA [ACCAC] — lower, 0.375 ± 0.043
- TTTTTTGATGCTGATGCGCATTTTTTTTTTTTTTTCACAT [TACAC] — lower, 0.368 ± 0.016
- TTTTTTGATGCTGATGCTCATTTTTTTTTTTTTTTCACAG [GACAC] — lower, 0.384 ± 0.019
- TTTTTTGATGCTGATGCTGATTTTTTTTTTTTTTTCACAC — lower, 0.311 ± 0.024
- TTTTTTGATGCTGATGCTGCTTTTTTTTTTTTTTTCACAA [AACAC] — within error, 0.411 ± 0.021
- TTTTTTGATGCTGCGCAGCATTTTTTTTTTTTTTTCAATT [TTAAC] — lower, 0.385 ± 0.029
- TTTTTTGATGCTGCGCATCATTTTTTTTTTTTTTTCAATG [GTAAC] — lower, 0.364 ± 0.026
- TTTTTTGATGCTGCGCATGATTTTTTTTTTTTTTTCAATC [CTAAC] — lower, 0.284 ± 0.013
- TTTTTTGATGCTGCGCATGCTTTTTTTTTTTTTTTCAATA [ATAAC] — within error, 0.422 ± 0.042
- TTTTTTGATGCTGCTCAGCATTTTTTTTTTTTTTTCAAGT [TGAAC] — within error, 0.478 ± 0.039
- TTTTTTGATGCTGCTCATCATTTTTTTTTTTTTTTCAAGG [GGAAC] — within error, 0.489 ± 0.029
- TTTTTTGATGCTGCTCATGATTTTTTTTTTTTTTTCAAGC [CGAAC] — within error, 0.426 ± 0.07
- TTTTTTGATGCTGCTCATGCTTTTTTTTTTTTTTTCAAGA [AGAAC] — higher, 0.543 ± 0.026
- TTTTTTGATGCTGCTGAGCATTTTTTTTTTTTTTTCAACT — lower, 0.342 ± 0.018
- TTTTTTGATGCTGCTGATCATTTTTTTTTTTTTTTCAACG [GCAAC] — within error, 0.408 ± 0.039
- TTTTTTGATGCTGCTGATGATTTTTTTTTTTTTTTCAACC [CCAAC] — lower, 0.265 ± 0.023
- TTTTTTGATGCTGCTGATGCTTTTTTTTTTTTTTTCAACA [ACAAC] — lower, 0.368 ± 0.022
- TTTTTTGATGCTGCTGCGCATTTTTTTTTTTTTTTCAAAT [TAAAC] — within error, 0.41 ± 0.061
- TTTTTTGATGCTGCTGCTCATTTTTTTTTTTTTTTCAAAG [GAAAC] — lower, 0.396 ± 0.026
- TTTTTTGATGCTGCTGCTGATTTTTTTTTTTTTTTCAAAC — lower, 0.323 ± 0.031
- TTTTTTGATGCTGCTGCTGCTTTTTTTTTTTTTTTCAAAA [AAAAC] — the same, 0.47 ± 0.03
- TTTTTTGCGCAGCAGCAGCATTTTTTTTTTTTTTTATTTT — lower, 0.381 ± 0.02
- TTTTTTGCGCAGCAGCATCATTTTTTTTTTTTTTTATTTG [GTTTA] — lower, 0.355 ± 0.025
- TTTTTTGCGCAGCAGCATGATTTTTTTTTTTTTTTATTTC [CTTTA] — lower, 0.307 ± 0.019
- TTTTTTGCGCAGCAGCATGCTTTTTTTTTTTTTTTATTTA — within error, 0.432 ± 0.031
- TTTTTTGCGCAGCATCAGCATTTTTTTTTTTTTTTATTGT [TGTTA] — within error, 0.486 ± 0.037
- TTTTTTGCGCAGCATCATCATTTTTTTTTTTTTTTATTGG [GGTTA] — within error, 0.476 ± 0.055
- TTTTTTGCGCAGCATCATGATTTTTTTTTTTTTTTATTGC [CGTTA] — within error, 0.402 ± 0.051
- TTTTTTGCGCAGCATCATGCTTTTTTTTTTTTTTTATTGA [AGTTA] — higher, 0.555 ± 0.03
- TTTTTTGCGCAGCATGAGCATTTTTTTTTTTTTTTATTCT [TCTTA] — lower, 0.326 ± 0.021
- TTTTTTGCGCAGCATGATCATTTTTTTTTTTTTTTATTCG [GCTTA] — lower, 0.388 ± 0.021
- TTTTTTGCGCAGCATGATGATTTTTTTTTTTTTTTATTCC [CCTTA] — lower, 0.272 ± 0.02
- TTTTTTGCGCAGCATGATGCTTTTTTTTTTTTTTTATTCA [ACTTA] — lower, 0.351 ± 0.021
- TTTTTTGCGCAGCATGCGCATTTTTTTTTTTTTTTATTAT — within error, 0.418 ± 0.024
- TTTTTTGCGCAGCATGCTCATTTTTTTTTTTTTTTATTAG [GATTA] — within error, 0.421 ± 0.058
- TTTTTTGCGCAGCATGCTGATTTTTTTTTTTTTTTATTAC [CATTA] — lower, 0.334 ± 0.032
- TTTTTTGCGCAGCATGCTGCTTTTTTTTTTTTTTTATTAA [AATTA] — within error, 0.416 ± 0.035
- TTTTTTGCGCATCAGCAGCATTTTTTTTTTTTTTTATGTT [TTGTA] — within error, 0.432 ± 0.035
- TTTTTTGCGCATCAGCATCATTTTTTTTTTTTTTTATGTG [GTGTA] — within error, 0.452 ± 0.034
- TTTTTTGCGCATCAGCATGATTTTTTTTTTTTTTTATGTC [CTGTA] — lower, 0.351 ± 0.046
- TTTTTTGCGCATCATCAGCATTTTTTTTTTTTTTTATGGT [TGGTA] — higher, 0.561 ± 0.028
- TTTTTTGCGCATCATCATCATTTTTTTTTTTTTTTATGGG [GGGTA] — higher, 0.548 ± 0.037
- TTTTTTGCGCATCATCATGATTTTTTTTTTTTTTTATGGC [CGGTA] — within error, 0.445 ± 0.026
- TTTTTTGCGCATCATCATGCTTTTTTTTTTTTTTTATGGA [AGGTA] — higher, 0.599 ± 0.041
- TTTTTTGCGCATCATGAGCATTTTTTTTTTTTTTTATGCT [TCGTA] — lower, 0.393 ± 0.02
- TTTTTTGCGCATCATGATCATTTTTTTTTTTTTTTATGCG [GCGTA] — within error, 0.49 ± 0.035
- TTTTTTGCGCATCATGATGATTTTTTTTTTTTTTTATGCC [CCGTA] — lower, 0.319 ± 0.02
- TTTTTTGCGCATCATGATGCTTTTTTTTTTTTTTTATGCA [ACGTA] — within error, 0.46 ± 0.036
- TTTTTTGCGCATCATGCGCATTTTTTTTTTTTTTTATGAT [TAGTA] — within error, 0.471 ± 0.03
- TTTTTTGCGCATCATGCTCATTTTTTTTTTTTTTTATGAG [GAGTA] — within error, 0.466 ± 0.04
- TTTTTTGCGCATCATGCTGATTTTTTTTTTTTTTTATGAC [CAGTA] — lower, 0.376 ± 0.02
- TTTTTTGCGCATCATGCTGCTTTTTTTTTTTTTTTATGAA [AAGTA] — within error, 0.51 ± 0.053
- TTTTTTGCGCATGAGCAGCATTTTTTTTTTTTTTTATCTT [TTCTA] — lower, 0.35 ± 0.024
- TTTTTTGCGCATGAGCATCATTTTTTTTTTTTTTTATCTG [GTCTA] — lower, 0.371 ± 0.036
- TTTTTTGCGCATGAGCATGATTTTTTTTTTTTTTTATCTC [CTCTA] — lower, 0.291 ± 0.02

— the supplement of paper PMC9428881
